Measurements: US20250289869

Experiments:
[1] = test system: FVIII169/VWF059 heterodimer
[2] = test system: FVIII169/VWF057 heterodimer
Chain of FVIII169/VWF057 heterodimer (chain, as listed by the source, chain 1 of 2): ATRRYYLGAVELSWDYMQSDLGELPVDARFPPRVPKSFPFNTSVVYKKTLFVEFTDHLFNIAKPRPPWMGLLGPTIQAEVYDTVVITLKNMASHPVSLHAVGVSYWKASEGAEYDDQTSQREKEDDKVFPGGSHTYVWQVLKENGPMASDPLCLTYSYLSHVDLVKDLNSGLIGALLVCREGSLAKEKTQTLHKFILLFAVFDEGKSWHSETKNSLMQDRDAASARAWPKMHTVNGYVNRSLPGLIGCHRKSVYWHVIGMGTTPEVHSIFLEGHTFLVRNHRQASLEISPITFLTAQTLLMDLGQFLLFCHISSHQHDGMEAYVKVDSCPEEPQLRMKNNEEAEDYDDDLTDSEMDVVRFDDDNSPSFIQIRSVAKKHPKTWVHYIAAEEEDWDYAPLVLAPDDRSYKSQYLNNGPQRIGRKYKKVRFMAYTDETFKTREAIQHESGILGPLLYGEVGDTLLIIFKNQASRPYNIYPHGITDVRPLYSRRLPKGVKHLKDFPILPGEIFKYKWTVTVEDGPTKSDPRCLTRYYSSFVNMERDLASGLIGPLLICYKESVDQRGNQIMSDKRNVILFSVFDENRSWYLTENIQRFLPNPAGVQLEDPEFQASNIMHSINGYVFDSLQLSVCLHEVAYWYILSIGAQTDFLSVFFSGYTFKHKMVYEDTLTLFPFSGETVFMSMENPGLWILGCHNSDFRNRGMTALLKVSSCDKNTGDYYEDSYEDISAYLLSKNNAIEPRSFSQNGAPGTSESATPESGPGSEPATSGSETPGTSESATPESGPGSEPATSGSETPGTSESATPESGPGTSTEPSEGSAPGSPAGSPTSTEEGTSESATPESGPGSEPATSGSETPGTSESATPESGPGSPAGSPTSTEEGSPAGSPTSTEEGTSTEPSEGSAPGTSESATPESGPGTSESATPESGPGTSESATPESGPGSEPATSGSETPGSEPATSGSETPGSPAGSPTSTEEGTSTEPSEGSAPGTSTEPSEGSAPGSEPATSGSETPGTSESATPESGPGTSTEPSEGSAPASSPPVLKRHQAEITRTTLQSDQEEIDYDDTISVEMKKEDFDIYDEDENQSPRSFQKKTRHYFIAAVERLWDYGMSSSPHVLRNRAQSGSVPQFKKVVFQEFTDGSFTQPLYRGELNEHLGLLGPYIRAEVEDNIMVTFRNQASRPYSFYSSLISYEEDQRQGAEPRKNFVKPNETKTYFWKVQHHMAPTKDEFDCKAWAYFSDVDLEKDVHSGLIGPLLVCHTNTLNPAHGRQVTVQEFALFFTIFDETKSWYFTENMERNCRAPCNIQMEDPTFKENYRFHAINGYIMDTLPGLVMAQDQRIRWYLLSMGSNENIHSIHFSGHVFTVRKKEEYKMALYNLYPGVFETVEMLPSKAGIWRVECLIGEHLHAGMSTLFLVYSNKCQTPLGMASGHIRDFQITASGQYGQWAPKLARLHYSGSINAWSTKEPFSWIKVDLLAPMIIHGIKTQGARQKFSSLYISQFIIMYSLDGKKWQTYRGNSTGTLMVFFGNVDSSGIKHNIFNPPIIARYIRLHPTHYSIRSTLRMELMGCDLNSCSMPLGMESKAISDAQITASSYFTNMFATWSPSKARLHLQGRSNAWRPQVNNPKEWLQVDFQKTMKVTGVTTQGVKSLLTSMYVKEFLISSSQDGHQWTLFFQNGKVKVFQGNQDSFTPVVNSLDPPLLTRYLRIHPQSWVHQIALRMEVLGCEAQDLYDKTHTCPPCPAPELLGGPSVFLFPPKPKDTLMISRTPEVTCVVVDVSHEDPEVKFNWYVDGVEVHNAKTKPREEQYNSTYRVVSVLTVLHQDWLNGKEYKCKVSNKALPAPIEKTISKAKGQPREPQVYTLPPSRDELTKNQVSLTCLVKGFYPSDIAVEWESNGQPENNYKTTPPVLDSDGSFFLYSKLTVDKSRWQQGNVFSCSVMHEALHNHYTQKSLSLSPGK
Chain of FVIII169/VWF057 heterodimer (chain, as listed by the source, chain 2 of 2): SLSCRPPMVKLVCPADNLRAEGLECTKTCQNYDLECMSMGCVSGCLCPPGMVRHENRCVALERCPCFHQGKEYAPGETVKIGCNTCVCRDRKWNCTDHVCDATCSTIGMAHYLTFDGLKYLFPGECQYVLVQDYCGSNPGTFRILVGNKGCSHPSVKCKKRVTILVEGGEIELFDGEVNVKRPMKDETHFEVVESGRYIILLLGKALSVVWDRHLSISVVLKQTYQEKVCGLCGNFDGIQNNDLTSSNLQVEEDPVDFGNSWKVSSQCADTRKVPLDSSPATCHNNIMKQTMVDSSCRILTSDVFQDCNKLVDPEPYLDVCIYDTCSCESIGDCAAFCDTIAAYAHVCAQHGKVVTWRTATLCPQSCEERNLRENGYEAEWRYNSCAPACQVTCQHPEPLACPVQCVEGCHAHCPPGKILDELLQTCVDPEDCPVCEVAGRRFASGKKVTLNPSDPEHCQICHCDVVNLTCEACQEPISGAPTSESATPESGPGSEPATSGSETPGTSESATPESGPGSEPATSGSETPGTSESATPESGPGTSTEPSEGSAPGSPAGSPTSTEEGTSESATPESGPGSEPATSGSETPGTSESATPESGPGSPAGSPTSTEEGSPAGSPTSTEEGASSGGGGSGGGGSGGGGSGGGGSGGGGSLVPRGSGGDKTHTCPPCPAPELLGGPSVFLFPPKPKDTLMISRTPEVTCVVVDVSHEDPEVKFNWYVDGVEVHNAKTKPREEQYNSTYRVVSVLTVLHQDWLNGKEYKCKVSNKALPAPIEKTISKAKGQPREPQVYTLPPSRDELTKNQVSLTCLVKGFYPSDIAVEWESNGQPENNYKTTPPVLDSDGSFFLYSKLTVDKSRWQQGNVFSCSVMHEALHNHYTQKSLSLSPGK

Chain of FVIII169/VWF059 heterodimer (chain, as listed by the source, chain 1 of 2): as the sequence (chain, as listed by the source, chain 1 of 2) above
Chain of FVIII169/VWF059 heterodimer (chain, as listed by the source, chain 2 of 2): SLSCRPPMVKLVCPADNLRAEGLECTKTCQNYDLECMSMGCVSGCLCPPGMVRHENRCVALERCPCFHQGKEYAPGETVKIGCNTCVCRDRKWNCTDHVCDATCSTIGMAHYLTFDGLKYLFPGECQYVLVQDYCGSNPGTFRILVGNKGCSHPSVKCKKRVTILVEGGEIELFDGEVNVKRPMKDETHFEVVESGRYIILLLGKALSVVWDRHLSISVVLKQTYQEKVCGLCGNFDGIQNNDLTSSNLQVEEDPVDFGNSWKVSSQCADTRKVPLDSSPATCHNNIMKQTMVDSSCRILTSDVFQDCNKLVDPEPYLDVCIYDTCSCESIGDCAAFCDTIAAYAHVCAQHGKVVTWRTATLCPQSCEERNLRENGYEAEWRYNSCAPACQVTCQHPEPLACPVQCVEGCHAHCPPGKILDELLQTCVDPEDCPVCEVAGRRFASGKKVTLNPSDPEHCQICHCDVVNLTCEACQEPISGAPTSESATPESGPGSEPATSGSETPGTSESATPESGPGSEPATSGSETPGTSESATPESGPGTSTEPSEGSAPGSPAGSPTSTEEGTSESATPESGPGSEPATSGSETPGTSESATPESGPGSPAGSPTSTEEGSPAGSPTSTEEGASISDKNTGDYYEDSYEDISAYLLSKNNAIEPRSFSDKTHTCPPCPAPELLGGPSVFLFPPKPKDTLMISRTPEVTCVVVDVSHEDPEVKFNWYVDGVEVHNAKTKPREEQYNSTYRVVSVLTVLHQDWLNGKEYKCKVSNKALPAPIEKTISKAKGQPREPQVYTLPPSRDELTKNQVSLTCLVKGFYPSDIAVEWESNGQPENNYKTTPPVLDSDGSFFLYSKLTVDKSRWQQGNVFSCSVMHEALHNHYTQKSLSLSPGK

Substance: human α-thrombin
- thrombin cleavage by mass spectroscopy (MS) [1]: By MS, FVIII 169/VWF059 again showed better release of D′D3 from Fc as compared to VWF057
- thrombin digestion, release of D′D3 from Fc (SDS-PAGE / western blot time course, FVIII:thrombin about 22:1, 37° C.) [1]: little to no detectable un-cleaved FVIII 169/VWF059 after 5 minutes
- thrombin digestion, release of D′D3 from Fc (SDS-PAGE / western blot time course, FVIII:thrombin about 22:1, 37° C.) [2]: Un-cleaved FVIII169/VWF057 remained after 15 minutes
